The numbers were not newly measured in article PMC9506339, which cites them from elsewhere.

Read-outs that look alike come from different tables or passages of the source.

Data set [1] concerns the target vitamin D-binding protein (UniProt P02774).
The target is the same in data set [2]. The source holds these as a separate data set.

Chain of UniProt P02774 (P02774 17-474): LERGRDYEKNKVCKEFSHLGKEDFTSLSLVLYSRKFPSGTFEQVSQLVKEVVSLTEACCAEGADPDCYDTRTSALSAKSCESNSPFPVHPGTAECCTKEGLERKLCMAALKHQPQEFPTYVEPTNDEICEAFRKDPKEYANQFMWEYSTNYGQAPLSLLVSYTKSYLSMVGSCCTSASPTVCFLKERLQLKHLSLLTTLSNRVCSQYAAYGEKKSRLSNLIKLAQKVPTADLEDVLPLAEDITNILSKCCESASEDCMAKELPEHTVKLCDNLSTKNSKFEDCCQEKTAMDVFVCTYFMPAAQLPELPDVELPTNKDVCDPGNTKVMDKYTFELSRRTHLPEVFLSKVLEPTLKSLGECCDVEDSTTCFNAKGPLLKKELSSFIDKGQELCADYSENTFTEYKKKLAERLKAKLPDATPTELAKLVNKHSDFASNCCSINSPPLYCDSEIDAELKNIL

As for megalin (from UniProt P98164), the dissociation constant (Kd) in data set [1] is 120 nM.

As for cubilin (from UniProt O60494), the Kd in data set [2] is 110 nM.

By Kd is commonly meant the free concentration of one partner at which half of the binding sites on the other are occupied at equilibrium, for simple one-to-one binding.
